Source: the Human Domainome abundance scans (Beltran et al. 2025)
± gives the uncertainty stated by the source.

B1: Far upstream element-binding protein 2, residues 142 to 214; numbered along this chain, Q92945 (parent)
chain: RTSMTEEYRVPDGMVGLIIGRGGEQINKIQQDSGCKVQISPDSGGLPERSVSLTGAPESVQKAKMMLDDIVSR

Variants of: B1
Assay: abundance fitness (aPCA) (normalised: wild type 0, dead -1); higher = more abundant; growth selection in yeast, the domain comes from the species named
Details: Homo sapiens

| Variant | abundance fitness |
| --- | --- |
| RTSMTEEYRVPDGMVGLIIGRGGEQINKIQQDSGCKVQISPDSGGLPERSVSLTGAPESVQKAKMMVDDIVSR [L67V] | -0.327 ± 0.043 |
| RTSMTEEYRVPDGMVGLIIGRGGEQINKIQQDSGCKVQISPDSGGLPERSVSLTGAPESVQKAKMMWDDIVSR [L67W] | -1.06 ± 0.063 |
| RTSMTEEYRVPDGMVGLIIGRGGEQINKIQQDSGCKVQISPDSGGLPERSVSLTGAPESVQKAKMMYDDIVSR [L67Y] | -0.84 ± 0.12 |
| RTSMTEEYRVPDGMVGLIIGRGGEQINKIQQDSGCKVQISPDSGGLPERSVSLTGAPESVQKAKMMLADIVSR [D68A] | -0.188 ± 0.044 |
| RTSMTEEYRVPDGMVGLIIGRGGEQINKIQQDSGCKVQISPDSGGLPERSVSLTGAPESVQKAKMMLCDIVSR [D68C] | -0.372 ± 0.062 |
| RTSMTEEYRVPDGMVGLIIGRGGEQINKIQQDSGCKVQISPDSGGLPERSVSLTGAPESVQKAKMMLEDIVSR [D68E] | -0.06 ± 0.049 |
| RTSMTEEYRVPDGMVGLIIGRGGEQINKIQQDSGCKVQISPDSGGLPERSVSLTGAPESVQKAKMMLFDIVSR [D68F] | -0.469 ± 0.081 |
| RTSMTEEYRVPDGMVGLIIGRGGEQINKIQQDSGCKVQISPDSGGLPERSVSLTGAPESVQKAKMMLGDIVSR [D68G] | -0.144 ± 0.039 |
| RTSMTEEYRVPDGMVGLIIGRGGEQINKIQQDSGCKVQISPDSGGLPERSVSLTGAPESVQKAKMMLHDIVSR [D68H] | -0.241 ± 0.068 |
| RTSMTEEYRVPDGMVGLIIGRGGEQINKIQQDSGCKVQISPDSGGLPERSVSLTGAPESVQKAKMMLIDIVSR [D68I] | -0.494 ± 0.077 |
| RTSMTEEYRVPDGMVGLIIGRGGEQINKIQQDSGCKVQISPDSGGLPERSVSLTGAPESVQKAKMMLKDIVSR [D68K] | -0.098 ± 0.053 |
| RTSMTEEYRVPDGMVGLIIGRGGEQINKIQQDSGCKVQISPDSGGLPERSVSLTGAPESVQKAKMMLLDIVSR [D68L] | -0.564 ± 0.043 |
| RTSMTEEYRVPDGMVGLIIGRGGEQINKIQQDSGCKVQISPDSGGLPERSVSLTGAPESVQKAKMMLMDIVSR [D68M] | -0.337 ± 0.054 |
| RTSMTEEYRVPDGMVGLIIGRGGEQINKIQQDSGCKVQISPDSGGLPERSVSLTGAPESVQKAKMMLNDIVSR [D68N] | -0.007 ± 0.061 |
| RTSMTEEYRVPDGMVGLIIGRGGEQINKIQQDSGCKVQISPDSGGLPERSVSLTGAPESVQKAKMMLPDIVSR [D68P] | -0.882 ± 0.063 |
| RTSMTEEYRVPDGMVGLIIGRGGEQINKIQQDSGCKVQISPDSGGLPERSVSLTGAPESVQKAKMMLQDIVSR [D68Q] | -0.116 ± 0.054 |
| RTSMTEEYRVPDGMVGLIIGRGGEQINKIQQDSGCKVQISPDSGGLPERSVSLTGAPESVQKAKMMLRDIVSR [D68R] | -0.126 ± 0.036 |
| RTSMTEEYRVPDGMVGLIIGRGGEQINKIQQDSGCKVQISPDSGGLPERSVSLTGAPESVQKAKMMLSDIVSR [D68S] | -0.138 ± 0.04 |
| RTSMTEEYRVPDGMVGLIIGRGGEQINKIQQDSGCKVQISPDSGGLPERSVSLTGAPESVQKAKMMLTDIVSR [D68T] | -0.278 ± 0.045 |

| Variant | abundance fitness |
| --- | --- |
| RTSMTEEYRVPDGMVGLIIGRGGEQINKIQQDSGCKVQISPDSGGLPERSVSLTGAPESVQKAKMMLVDIVSR [D68V] | -0.456 ± 0.046 |
| RTSMTEEYRVPDGMVGLIIGRGGEQINKIQQDSGCKVQISPDSGGLPERSVSLTGAPESVQKAKMMLWDIVSR [D68W] | -0.62 ± 0.054 |
| RTSMTEEYRVPDGMVGLIIGRGGEQINKIQQDSGCKVQISPDSGGLPERSVSLTGAPESVQKAKMMLDAIVSR [D69A] | -0.019 ± 0.043 |
| RTSMTEEYRVPDGMVGLIIGRGGEQINKIQQDSGCKVQISPDSGGLPERSVSLTGAPESVQKAKMMLDCIVSR [D69C] | -0.133 ± 0.071 |
| RTSMTEEYRVPDGMVGLIIGRGGEQINKIQQDSGCKVQISPDSGGLPERSVSLTGAPESVQKAKMMLDEIVSR [D69E] | -0.002 ± 0.052 |
| RTSMTEEYRVPDGMVGLIIGRGGEQINKIQQDSGCKVQISPDSGGLPERSVSLTGAPESVQKAKMMLDFIVSR [D69F] | -0.284 ± 0.092 |
| RTSMTEEYRVPDGMVGLIIGRGGEQINKIQQDSGCKVQISPDSGGLPERSVSLTGAPESVQKAKMMLDGIVSR [D69G] | -0.057 ± 0.04 |
| RTSMTEEYRVPDGMVGLIIGRGGEQINKIQQDSGCKVQISPDSGGLPERSVSLTGAPESVQKAKMMLDHIVSR [D69H] | -0.165 ± 0.075 |
| RTSMTEEYRVPDGMVGLIIGRGGEQINKIQQDSGCKVQISPDSGGLPERSVSLTGAPESVQKAKMMLDIIVSR [D69I] | -0.262 ± 0.09 |
| RTSMTEEYRVPDGMVGLIIGRGGEQINKIQQDSGCKVQISPDSGGLPERSVSLTGAPESVQKAKMMLDKIVSR [D69K] | -0.043 ± 0.064 |
| RTSMTEEYRVPDGMVGLIIGRGGEQINKIQQDSGCKVQISPDSGGLPERSVSLTGAPESVQKAKMMLDLIVSR [D69L] | -0.143 ± 0.051 |
| RTSMTEEYRVPDGMVGLIIGRGGEQINKIQQDSGCKVQISPDSGGLPERSVSLTGAPESVQKAKMMLDMIVSR [D69M] | -0.13 ± 0.064 |
| RTSMTEEYRVPDGMVGLIIGRGGEQINKIQQDSGCKVQISPDSGGLPERSVSLTGAPESVQKAKMMLDNIVSR [D69N] | -0.094 ± 0.066 |
| RTSMTEEYRVPDGMVGLIIGRGGEQINKIQQDSGCKVQISPDSGGLPERSVSLTGAPESVQKAKMMLDPIVSR [D69P] | -0.589 ± 0.058 |
| RTSMTEEYRVPDGMVGLIIGRGGEQINKIQQDSGCKVQISPDSGGLPERSVSLTGAPESVQKAKMMLDQIVSR [D69Q] | -0.097 ± 0.061 |
| RTSMTEEYRVPDGMVGLIIGRGGEQINKIQQDSGCKVQISPDSGGLPERSVSLTGAPESVQKAKMMLDSIVSR [D69S] | -0.122 ± 0.049 |
| RTSMTEEYRVPDGMVGLIIGRGGEQINKIQQDSGCKVQISPDSGGLPERSVSLTGAPESVQKAKMMLDTIVSR [D69T] | -0.103 ± 0.051 |
| RTSMTEEYRVPDGMVGLIIGRGGEQINKIQQDSGCKVQISPDSGGLPERSVSLTGAPESVQKAKMMLDVIVSR [D69V] | -0.181 ± 0.046 |
| RTSMTEEYRVPDGMVGLIIGRGGEQINKIQQDSGCKVQISPDSGGLPERSVSLTGAPESVQKAKMMLDWIVSR [D69W] | -0.321 ± 0.057 |
